Like-named read-outs stand apart in the source and are kept apart here.
B1: AS179732 VL1g1VH1g1-N73Y scFv-mIgG2aFc (Fc fusion, not shown: a dimerising Fc or GST)
chain: QSVLTQPPSASGTPGQRVTISCSGSSSNIGGNYVNWYQQLPGTAPKLLIYDNSNRASGVPDRFSGSKSGTSASLAISGLQSEDEADYYCASWDDSLSGAVFGGGTKLTVLGGGGSGGGGSGGGGSEVQLVESGGGLVQPGGSLRLSCAASGFTFLNYAMSWVRQAPGKGLEWVSSNSGAGSTYYADSVKGRFTISRDYSKNTLYLQMNSLRAEDTAVYYCAKGTNVGSWSSLHYWGQGTLVTVSS
notes: Humanized
B2: AS170036 VL1VH2 scFv-mIgG2aFc (Fc fusion, not shown: a dimerising Fc or GST)
scFv: QSALTQPRSVSGSPGQSVTISCAGTSSDVGSENYVSWYQQHPGKAPKLMIYQVNKRASGVPDRFSGSKSGNTASLTISGLQAEDEADYYCASYRSSDHNIVFGGGTKLTVLGGGGSGGGGSGGGGSEVQLVESGGGLVQPGGSLRLSCTASGFTFSSYAMSWVRQAPGKGLEWVSTINSGTGSPYYADSVKGRFTISRDNSKNTLYLQMNSLRAEDTAMYYCAKNFFDGSWFLGPPAMDYWGQGTLVTVSS
B3: AS170036 VL2VH1 scFv-mIgG2aFc (Fc fusion, not shown: a dimerising Fc or GST)
scFv: QSALTQPRSVSGSPGQSVTISCAGTSSDVGSENYVSWYQQHPGKAPKLLIYQVNKRASGIPDRFSGSKSGNTASLTISGLQAEDEADYYCASYRSSDHNIVFGGGTKLTVLGGGGSGGGGSGGGGSEVQLVESGGGLVQPGGSLRLSCAASGFTFSSYAMSWVRQAPGKGLEWVSTINSGTGSPYYADSVKGRFTISRDNSKNTLYLQMNSLRAEDTAVYYCAKNFFDGSWFLGPPAMDYWGQGTLVTVSS
B4: AS170036 VL2VH2 scFv-mIgG2aFc (Fc fusion, not shown: a dimerising Fc or GST)
scFv: QSALTQPRSVSGSPGQSVTISCAGTSSDVGSENYVSWYQQHPGKAPKLLIYQVNKRASGIPDRFSGSKSGNTASLTISGLQAEDEADYYCASYRSSDHNIVFGGGTKLTVLGGGGSGGGGSGGGGSEVQLVESGGGLVQPGGSLRLSCTASGFTFSSYAMSWVRQAPGKGLEWVSTINSGTGSPYYADSVKGRFTISRDNSKNTLYLQMNSLRAEDTAMYYCAKNFFDGSWFLGPPAMDYWGQGTLVTVSS

Columns and labels:
[1] = molecular target: T1, AFP158/HLA-A*02:01 complex (human); experiment: SPR, scFv-mIgG2aFc from supernatant captured, complex as analyte
T1 construct: biotinylated on the BSP by BirA for ELISA and panning; also called biotinylated AFP158/HLA-A*02:01 complex; Bio-AFP158
Method: (§1) The binding affinity between selected antibodies and AFP158/HLA-A*02:01 complex was determined by surface plasmon resonance (SPR) on a BIAcore T200 instrument (GE Healthcare). The experiment was carried out as follows. The purified sdAb/scFv-mIgG2aFc protein were captured through mIgG2a-Fc onto the sensorchip. […] On-rate (kₐ) and off-rate (kd) were calculated based on association and dissociation curve, and were used to estimate the equilibrium dissociation constant (KD).
(§2) Humanized heavy chains and light chains were combined, and used to produce a series of humanized antibodies. These antibodies were synthesized as scFv-mIgG2aFc and transiently produced using HEK293 cells. The antibodies in the supernatant were subjected to SPR affinity assessment.

[2] = molecular target: T1, AFP158/HLA-A*02:01 complex; experiment: as above; remark: listed apart in the source
Method: as §1, §2

Binder | Kd [1] | Kd [2] | koff [2] | kon [2]
B1 | 54 nM |  |  | 
B2 |  | 380 nM | 0.071 s⁻¹ | 190000 M⁻¹ s⁻¹
B3 |  | 340 nM | 0.095 s⁻¹ | 280000 M⁻¹ s⁻¹
B4 |  | 390 nM | 0.072 s⁻¹ | 190000 M⁻¹ s⁻¹

Source: US20240279318A1 (NANJING LEGEND BIOTECH, published 2024)
